Measured values: patent US20090269277A1

Tests used:
[1] = molecular target: CEA (UniProt P06731); experiment: SE-HPLC of 125I-TF2 mixed with a 20-fold molar excess of CEA
[2] = molecular target: recombinant human RIIalpha (commercial sample) (human) (UniProt P13861); experiment: equilibrium SE-HPLC
Chain of recombinant human RIIalpha (commercial sample) (human) (P13861 whole entry): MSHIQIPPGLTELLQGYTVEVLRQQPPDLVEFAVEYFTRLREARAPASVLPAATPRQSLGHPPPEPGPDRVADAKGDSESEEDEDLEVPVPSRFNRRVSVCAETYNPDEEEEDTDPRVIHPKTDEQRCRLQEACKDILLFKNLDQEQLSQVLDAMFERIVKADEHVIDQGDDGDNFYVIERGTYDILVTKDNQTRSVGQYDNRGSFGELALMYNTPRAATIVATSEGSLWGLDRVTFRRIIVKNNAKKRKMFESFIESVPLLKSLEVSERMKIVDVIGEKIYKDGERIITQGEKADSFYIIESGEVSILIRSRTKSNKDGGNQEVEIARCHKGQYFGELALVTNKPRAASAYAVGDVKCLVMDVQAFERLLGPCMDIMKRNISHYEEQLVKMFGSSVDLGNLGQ

Chain of CEA (P06731 35-685 limits assumed): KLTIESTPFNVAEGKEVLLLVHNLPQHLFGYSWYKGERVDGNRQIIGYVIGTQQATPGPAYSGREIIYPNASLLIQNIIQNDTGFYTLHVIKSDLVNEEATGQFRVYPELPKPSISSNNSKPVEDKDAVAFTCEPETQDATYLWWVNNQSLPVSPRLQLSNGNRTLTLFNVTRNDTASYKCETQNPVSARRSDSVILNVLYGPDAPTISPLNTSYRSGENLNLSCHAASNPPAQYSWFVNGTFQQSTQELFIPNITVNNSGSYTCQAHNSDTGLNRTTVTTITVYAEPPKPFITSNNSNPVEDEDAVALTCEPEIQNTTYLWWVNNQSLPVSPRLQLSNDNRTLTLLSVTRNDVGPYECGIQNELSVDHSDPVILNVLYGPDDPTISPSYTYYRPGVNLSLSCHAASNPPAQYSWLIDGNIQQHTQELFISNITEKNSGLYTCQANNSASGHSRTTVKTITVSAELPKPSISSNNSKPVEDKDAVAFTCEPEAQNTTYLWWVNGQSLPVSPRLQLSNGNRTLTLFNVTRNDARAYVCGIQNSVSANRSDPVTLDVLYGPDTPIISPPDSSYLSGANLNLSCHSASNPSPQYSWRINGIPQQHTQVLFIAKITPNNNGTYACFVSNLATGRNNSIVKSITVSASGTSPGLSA

Row | percent of labeled TF2 shifted to a high molecular weight species [1] [%] | Kd [2] [nM] | Molecule
1 | 95 |  | TF2 (bispecific antibody)
2 |  | 30 | PKSCGGGGSGGGGSGGGGSQIEYLAKQIVDNAIQQA (Fab, part only; not given: h679 Fd and light chain, part only) [h679-Fab-AD1]
